Reference: PMC5502268, “DNA Methylation Influences Chlorogenic Acid Biosynthesis in Lonicera japonica by Mediating LjbZIP8 to Regulate Phenylalanine Ammonia-Lyase 2 Expression”

Columns and labels:
[1] = target: T1, LjbZIP8 (Lonicera japonica, UniProt A0A4Y1JSE6 1-144); experiment: EMSA; inhibited by unlabelled probe (200x in legend; 4 pmol vs 40 fmol in Methods); 40 fmol biotin probe, 15 fmol protein, 0 or 4 pmol competitor, room temperature 20 min, Pierce LightShift kit 20148; binding buffer, salt and pH not stated; settings: protein: recombinant; tags: GST (pGEX-4T-1); chain copies: 2; blunt
T1 sequence: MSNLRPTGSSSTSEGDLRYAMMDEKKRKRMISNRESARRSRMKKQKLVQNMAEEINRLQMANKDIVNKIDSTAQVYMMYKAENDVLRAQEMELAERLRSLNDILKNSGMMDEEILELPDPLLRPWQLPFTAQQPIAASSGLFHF

[2] = target: T2, LjbZIP10 (Lonicera japonica, UniProt A0A4Y1JSG2 1-361); experiment: EMSA; 40 fmol biotin probe, 15 fmol protein, 0 or 4 pmol competitor, room temperature 20 min, Pierce LightShift kit 20148; binding buffer, salt and pH not stated; settings: protein: recombinant; tags: GST (pGEX-4T-1); chain copies: 2; blunt
T2 sequence: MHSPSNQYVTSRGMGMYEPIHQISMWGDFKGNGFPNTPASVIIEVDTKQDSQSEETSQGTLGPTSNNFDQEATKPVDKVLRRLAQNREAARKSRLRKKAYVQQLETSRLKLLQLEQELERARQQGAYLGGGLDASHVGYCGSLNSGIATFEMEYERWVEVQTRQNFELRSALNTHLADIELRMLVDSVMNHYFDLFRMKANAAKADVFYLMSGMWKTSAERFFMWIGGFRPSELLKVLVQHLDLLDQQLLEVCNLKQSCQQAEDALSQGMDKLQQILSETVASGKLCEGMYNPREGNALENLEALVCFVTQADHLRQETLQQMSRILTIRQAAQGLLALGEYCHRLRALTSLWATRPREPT

B1: LjPAL2 G-box probe (dsDNA)
DNA 1: CTCTCCTGTCCACGTGTCATCAAC
DNA 2: GTTGATGACACGTGGACAGGAGAG
binding result [1]: binds | binding result [2]: no binding
